The values below come from patent publication US6475997B1, “Methods of stimulating phagocytosis” (University of Pennsylvania, priority 1993, dated 2002).

Data set [1] concerns the target γ chain (γ subunit of FcγRI and FcγRIIIA). The experiment in a line: cell-based or functional assay.
The next data set deals with FcγRII. Particulars: cited from earlier work.
Data set [2] deals with FcγRIIA (UniProt P12318).
The subject of data set [3] is J32/FcγRIIA and J32-3.2/FcγRIIA T-cell transfectants. The experiment in a line: inhibition of sEA phagocytosis in FcγRIIA T-cell transfectants. It is filed as cell-based. The conditions noted are these: preincubation of the cells in 10 μg/ml. On the procedure: The ability of these T-cell transfectants to phagocytose IgG-sensitized cells was assessed by incubation with IgG coated sheep erythrocytes (sEA). In both the wild type J32 and mutant J32-3.2 transfectants, a number of the cells were able to phagocytose the sEA (FIG. 12).
Considering that 70%-100% of the cells are expressing FcγRIIA in these transfectants, and presumably are mediating phagocytosis through this receptor, the levels of phagocytosis observed are relatively low when compared, for example, to COS-1 fibroblasts transfected with FcγRIIA (Indik et al, J. Clin. Invest. 88:1766 (1991)). […] Also phagocytosis was inhibited when the transfectants were incubated with sEA at 0° C. instead of 37° C.

In data set [4] the target is FcγRIIA (UniProt P12318). Nature of the data set: cell-based or functional assay.
Data set [5] has as its system murine macrophages (P388D1). Nature of the data set: phagocytosis by WT FcγRI transfected into murine macrophages. It is filed as cell-based. As to the method:
Wild type (WT) and a mutant (MT) FcγRI, engineered to omit the cytoplasmic domain (CYT), were transfected into COS cells and murine macrophages (P388D1). The phagocytic potential of the transformed cells was assessed using IgG-coated RBCs (EA) and RBCs conjugated with Fab anti-human FcγR1 mAb (E-mAb). […] However, both WT and MT FcγRI induced phagocytosis in P388D1. Phagocytosis by WT FcγRI was inhibited by the tyrosine kinase inhibitor tyrphostin 23. Furthermore, activation of FcγRI on monocytes with Fab anti-FcγRI induced tyrosine phosphorylation of FcγRII, determined by anti-phosphotyrosine immunoblots. FcγR1 thus mediates a Ca^2+ signal through its cytoplasmic domain but not phagocytosis. FcγRI induced phagocytosis therefore requires elements, present in macrophages but absent in COS cells, that permit transmembrane communication.

For a further data set, the system named is COS-1 cells. Nature of the data set: phagocytosis of IgG-coated cells (EA) by FcγRIIIA-transfected COS-1 cells, electron microscopy. It is filed as cell-based. The conditions noted are these: COS-1 transfectants. The text has this:
A FcγRIIIA encoding sequence was transfected into COS-1 cells to study its phagocytic function, determined by electron microscopy, in the absence of other Fc receptors. […] To delineate the region of the γ chain important in phagocytosis, two deletion mutants, were constructed, deleting the C-terminal 7 amino acids or deleting the C-terminal 22 amino acids which have a tyrosine containing conserved motif, Y-X2-L-X7-Y-X2-L (SEQ ID NO:10), present in several Ig gene super family receptors. […] The role of the conserved cytoplasmic tyrosines was then examined.
Further, single chain Fcγ receptor chimeras, consisting of the γ cytoplasmic domain and the a extracellular domain with the transmembrane domain of either FcγRIIIA-γ or FcγRI were able to mediate a phagocytic signal. However, single chain chimeras were not sufficient for full phagocytic activity.

Data set [6] deals with splenic macrophage Fcγ receptors. The conditions noted are these: in vivo; cited from earlier work.
The test system of data set [7] is IgG sensitized 51Cr-guinea pig RBC (EA). Nature of the data set: splenic macrophage clearance of IgG sensitized 51Cr-guinea pig RBC (EA), established guinea pig model. It is filed as in vivo. On the procedure:
(§1) Human recombinant macrophage colony stimulating factor (hrM-CSF) was studied in vivo using an established model in the guinea pig (Schreiber et al, J. Clin. Invest. 51:575 (1972)). Adult male guinea pigs were treated for 5 days with hrM-CSF (500 μg/kg) and splenic macrophage FcγR function and protein expression were assessed by i) the splenic macrophage clearance of IgG sensitized ^51Cr-guinea pig RBC (EA), ii) the in vitro binding of EA by isolated splenic macrophage, and iii) FACS analysis using monoclonal antibodies with specificity for the two guinea pig splenic macrophage Fcγ receptors, FcγR1,2 and FcγR2. Treatment with hrM-CSF enchanced the clearance of EA by 72±5%. In addition, a greater proportion of isolated splenic macrophages from hrM-CSF treated animals bound EA in vitro: 80±7% vs 48±4% (sham), p<0.001. In vivo hrM-CSF increased the expression of both splenic macrophages Fcγ receptors: 81±6% and 130±10% for FcγR1,2 and FcγR2, respectively. The lowest effective dose of hrM-CSF was 250 μg/kg, increasing the expression of FcγR1,2 by 26±3% and FcγR2 by 42±4%. […] The effect of hrM-CSF required at least 4 days of treatment.

Another data set relates to splenic macrophage. Nature of the data set: in vitro binding of EA by isolated splenic macrophages from treated animals. The data set is classed as in vivo, guinea pig. Particulars: animals treated 500 μg/kg for 5 days; sham 48±4%, p<0.001. As to the method: as §1
The next data set has as its system FcγR1,2. Nature of the data set: FACS analysis of splenic macrophage Fcγ receptor expression with monoclonal antibodies. It is filed as in vivo, guinea pig. On the procedure: as §1
For orientation: A flow cytometer gives signals particle by particle.

For another data set, the system named is FcγR2. The data set is described as above. The data set is classed as in vivo, guinea pig. As to the method: as §1
The subject of another data set is FcγRI and FcγRII. The conditions noted are these: cited from earlier work.

Regarding Syk (enzyme), in data set [1], the enhancement of phagocytosis mediated by FcγRI/γ on co-transfection of Syk in COS-1 cells turned out to be 8 fold and the enhancement of phagocytosis mediated by FcγRIIIA/γ on co-transfection of Syk in COS-1 cells came out at 6.1 fold.
As to “GM-CSF: hematopoietic growth factor, granulocyte-macrophage colony-stimulating factor”, the “effect on monocyte FcγRII expression and function” value in the data set with FcγRII was “selectively increase monocyte FcγRII expression and function”.
In the case of Src, the “in vitro immune complex kinase assay: phosphorylation of FcγRIIA” value in the data set with FcγRIIA [2] was “FcγRIIA was phosphorylated by Src in this in vitro assay”.
With `C=C1[C@@H](C)[C@H]2[C@H](Cc3ccccc3)NC(=O)[C@]23[C@H](OC(C)=O)/C=C/[C@@](C)(O)C(=O)[C@@H](C)C/C=C/[C@H]3[C@@H]1O` [cytochalasin-D], the “effect on phagocytosis of sEA” value in data set [3] is “abolished phagocytosis”.
Turning to “IgG on IgG-sensitized sheep red blood cells (EA) (antibody)”, in the data set with FcγRIIA [4], the % phagocytic cells, J32-3.2/FcγRIIA bulk transfectants, experiment 2 was found to be 5%; the % phagocytic cells, J32-3.2/FcγRIIA bulk transfectants, experiment 3 came out at 13%; the % phagocytic cells, J32-3.2/FcγRIIA bulk transfectants, experiment 4 is 17%; the % phagocytic cells, J32-3.2/FcγRIIA bulk transfectants, experiment 6 is 6%. In the data set with FcγRIIA [4], this molecule showed a % phagocytic cells, J32/FcγRIIA bulk transfectants, experiment 1 of 17%; a % phagocytic cells, J32/FcγRIIA bulk transfectants, experiment 2 of 33%; a % phagocytic cells, J32/FcγRIIA bulk transfectants, experiment 3 of 25%; a % phagocytic cells, J32/FcγRIIA bulk transfectants, experiment 4 of 32%. In the data set with FcγRIIA [4], this molecule displayed a % phagocytic cells, J32/FcγRIIA bulk transfectants, experiment 5 of 31%; a % phagocytic cells, J32/FcγRIIA bulk transfectants, experiment 6 of 14%; a corrected phagocytic index (cP1), J32-3.2/FcγRIIA bulk transfectants, experiment 2 (erythrocytes ingested per 100 cells) of 7; a corrected phagocytic index (cP1), J32-3.2/FcγRIIA bulk transfectants, experiment 3 (erythrocytes ingested per 100 cells) of 21. Moreover, in the data set with FcγRIIA [4], the corrected phagocytic index (cP1), J32-3.2/FcγRIIA bulk transfectants, experiment 4 (erythrocytes ingested per 100 cells) amounted to 24; the corrected phagocytic index (cP1), J32-3.2/FcγRIIA bulk transfectants, experiment 6 (erythrocytes ingested per 100 cells) stood at 9; the percent of cells that phagocytosed EA, FcγRIIA-infected D58 (Src+) cells is 70 percent; the percent of cells that phagocytosed EA, FcγRIIA-infected SAR6 (Src-) cells amounted to 43 percent. In the data set with FcγRIIA [4], this molecule gave a phagocytic index (P1), J32-3.2/FcγRIIA bulk transfectants, experiment 2 (erythrocytes ingested per 100 cells) of 6; a phagocytic index (P1), J32-3.2/FcγRIIA bulk transfectants, experiment 3 (erythrocytes ingested per 100 cells) of 18; a phagocytic index (P1), J32-3.2/FcγRIIA bulk transfectants, experiment 4 (erythrocytes ingested per 100 cells) of 21; a phagocytic index (P1), J32-3.2/FcγRIIA bulk transfectants, experiment 6 (erythrocytes ingested per 100 cells) of 8. In the data set with FcγRIIA [4], this molecule showed a phagocytic index (P1), J32/FcγRIIA bulk transfectants, experiment 1 (erythrocytes ingested per 100 cells) of 28; a phagocytic index (P1), J32/FcγRIIA bulk transfectants, experiment 2 (erythrocytes ingested per 100 cells) of 22; a phagocytic index (P1), J32/FcγRIIA bulk transfectants, experiment 3 (erythrocytes ingested per 100 cells) of 40; a phagocytic index (P1), J32/FcγRIIA bulk transfectants, experiment 4 (erythrocytes ingested per 100 cells) of 53. For the same molecule, in the data set with FcγRIIA [4], the phagocytic index (P1), J32/FcγRIIA bulk transfectants, experiment 5 (erythrocytes ingested per 100 cells) is 51 and the phagocytic index (P1), J32/FcγRIIA bulk transfectants, experiment 6 (erythrocytes ingested per 100 cells) was 21.
Regarding `N#CC(C#N)=Cc1ccc(O)c(O)c1` [tyrphostin 23], in data set [5], the “effect on phagocytosis by WT FcγRI” value is recorded as “inhibited”. In addition, the “effect on FcγRIIIA phagocytosis” value in the data set with COS-1 cells is “reversibly inhibited phagocytosis”.

B1: M-CSF: hematopoietic growth factor, macrophage colony stimulating factor (protein, UniProt P09603 33-554, looked up)
Macrophage colony-stimulating …: EEVSEYCSHMIGSGHLQSLQRLIDSQMETSCQITFEFVDQEQLKDPVCYLKKAFLLVQDIMEDTMRFRDNTPNAIAIVQLQELSLRLKSCFTKDYEEHDKACVRTFYETPLQLLEKVKNVFNETKNLLDKDWNIFSKNCNNSFAECSSQDVVTKPDCNCLYPKAIPSSDPASVSPHQPLAPSMAPVAGLTWEDSEGTEGSSLLPGEQPLHTVDPGSAKQRPPRSTCQSFEPPETPVVKDSTIGGSPQPRPSVGAFNPGMEDILDSAMGTNWVPEEASGEASEIPVPQGTELSPSRPGGGSMQTEPARPSNFLSASSPLPASAKGQQPADVTGTALPRVGPVRPTGQDWNHTPQKTDHPSALLRDPPEPGSPRISSLRPQGLSNPSTLSAQPQLSRSHSSGSVLPLGELEGRRSTRDRRSPAEPEGGPASEGAARPLPRFNSVPLTDTGHERQSEGSFSPQLQESVFHLLVPSVILVLLAVGGLLFYRWRRRSHQEPQRADSPLEQPEGSPLTQDDRQVELPV
For the molecule B1, the “effect on splenic macrophage Fcγ receptors” value in data set [6] is on record as “increase splenic macrophage Fcγ receptors”.

B2: hrM-CSF: Human recombinant macrophage colony stimulating factor (protein, UniProt P09603 33-554, looked up)
Macrophage colony-stimulating …: B1 Macrophage colony-stimulating …
On to B2, for which the “enhancement of the clearance of EA” value in [7] (adult male guinea pigs, 500 μg/kg for 5 days) amounted to 72±5%. Also, in data set [7] (guinea pig), the “days of treatment required for the effect” value was “at least 4 days” and the lowest effective dose was 0.25 mg/kg. In the data set with splenic macrophage, the “proportion of isolated splenic macrophages that bound EA in vitro” value is recorded as 80±7%. Besides, the “increase in expression of FcγR1,2” value with FcγR1,2 (250 μg/kg) is recorded as 26±3%. In addition, the “increase in expression of splenic macrophage FcγR1,2” value with FcγR1,2 (500 μg/kg for 5 days) worked out at 81±6%. Also, in the data set on FcγR2 (250 μg/kg), the “increase in expression of FcγR2” value was determined as 42±4%. The “increase in expression of splenic macrophage FcγR2” value in the data set on FcγR2 (500 μg/kg for 5 days) came to 130±10%.

B3: IFN-γ: the cytokine interferon gamma (protein, UniProt P01579 24-161, looked up)
Interferon gamma: QDPYVKEAENLKKYFNAGHSDVADNGTLFLGILKNWKEESDRKIMQSQIVSFYFKLFKNFKDDQSIQKSVETIKEDMNVKFFNSNKKKRDDFEKLTNYSVTDLNVQRKAIHELIQVMAELSPAAKTGKRKRSQMLFRG
Take B3: the “effect on levels of FcγRI and FcγRII” value in the data set on FcγRI and FcγRII was “modulate the levels of FcγRI and FcγRII”.
